# Assay results published in the nanobody polyreactivity screen of Harvey et al. (2022).
# Experiment: yeast display, Sf9 membrane polyspecificity reagent, FACS + sequencing; frameworks hold sequencing errors
# Method in brief: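 A nanobody's polyreactivity label depends on the gate it was sorted from. Yeast display cells were stained with 10% biotinylated, detergent-solubilized Sf9 membrane reagent for 1 hour at 4 °C, enriched on streptavidin microbeads and sorted by FACS. The low and high (top ~1%) gates were set on anti-HA fluorescence for expression and streptavidin fluorescence for reagent binding.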
row,Sequence,polyreactivity (PSR sort gate)
1,QVQLVESGGGLVQAGGSLRLSCAASGFIFVQNTMGWYRQAPGKERELVAAISRGTGRTYYADSVKGRFTISRDNAKNTVYLQMNSLKPDDTAVYYCNVVYPQRYRSREDDYWGQGTQVTVSS,high polyreactivity
2,QVQLVESGGGLVQAGGSLRLSCAASGSTFIVYAMGWYRQAPGKERELVAAITASGGSTYADSVKGRFTISRDNAKNTVYLQMNSLKPEDTAVYYCAARRWSRKYRKYDYWGQGTQVTVSS,high polyreactivity
3,QVQHVESGGGLVQAGGSLRLSCAASGSTFVVYAMGWYRQAPGKERELVAAINWSGGSTYYADSVKGRFTISRDNAKNTVYLQMNSLKPEDTAVYYCSAYGVTYRGDYDYWGQGTQVTVSS,low polyreactivity
4,QVQLVESGGGLVQAGGSLRLSCAASGFTFWKYAMGWYRQAPGKERELVAAISWSGGNTYYADSVKGRFTISRDNAKNTVYLQMNSLKPEDTAVYYCAAVYTPQNQFRYKYYYWGQGTQVTVSS,high polyreactivity
5,QVQVVESGGGLVQAGGSLGLSCAASGRTFRVYAMGWYRQAPGKERELVASITRGGGTYADSVKGRFTISRDNAKNTVYLQMNCLKPEDTAVYYCNARWQRSTGGRQRYDYWGLGTQVTVSS,high polyreactivity
6,QVQLVESGGGLVQAGGSLRLSCAASGSTLGQYAMGWYRQAPGKERELVAASRRGVRTYYADSVKGRFTISRDNAKNTVYFQMNSLKPEDTAVFYCAARRDVSRPVVGTMGYWGQGSQVTVSS,high polyreactivity
7,QVQLVESGGGLVQAGGSLRLSCAASGRIFRYNAMGWYRQAPGKERELVATITDGGSTSYADSVKGRFTISRDNAKNTVYLQMNSLKPEDTAVYYCARDPLPSYWKVWSRPTFDYWGQGTQVTVSS,low polyreactivity
8,QVHLVESGGVLVQAGGSLRLSCAASGFTFNRYAMGWYRQAPGKERELVAAITSAGNTYYADSVKARFTNSRDNGKNTVYLQMNSMKPEDTAVYYCLNGRYWRRYDYWGQGTQVTVSS,high polyreactivity
9,QVQLVESGGGLVQAGGSLRLSCAASGSIFGGYGMGCYRQAPGKERALVAAITSGSSTYYADSVKGRFTISRDNAKKTVYLQMPSLTPEDTAGYYCNADYAYYRDVYSPYDSWGQGTQVTVSS,low polyreactivity
10,QVQLVESGGGLVQAGGSLRLSCAASRSTFVRNAMGWYREAPGKESELVAASSNVGSTYYADSVKGRFTISRDTAKNTVYFQMNILKPEDTAVYYCTKQLWYHKFNYWGQGTQVTVSA,low polyreactivity
11,QVQLVESGGGLVQAGGSLRLSCAASGFTFVRYVMGWSRQAPGKERELVAAISRSGGSTHYADSVKGRFTISRDNAKNTVYLQMNSLKPEDTAVYYCAAASPRWPGQGDYWGQGTQVTVSS,high polyreactivity
12,QVHLVESGGGLFQAVLSLRLSCAASGFIFQRYPMGWYRQAPGKESELVAAISSGGGTNYADSVKGRFTISRDNAKKTVYLQLNSLIPEDTAVYYCARPYYVYSQSSDYWGQGTQVTVSS,low polyreactivity
13,QVQLVESGGGLVQAGGSLRLSCAASGRIFYPYAMGWYRQAPGKEREFVAAISYRGTSTFYADSVKGRFTISRDNAKNTVYLQMNSLKPEDTAVYYCAARVLWYGRATAAVTPYDYWGQGTQVTVSS,high polyreactivity
14,QVQLVESGGGLVQAGGSLRLSCAASGSTFFSNAMGRYRQAPGKERELVAAISWSGGSTYYADSVKGRFTISRDNAKNTVYLKLNSLKPEDTAVYYCGADYYGYWYDFEGDHWGQGTQVTVSS,low polyreactivity
15,QVQLVESGGGLVQAGGSLRLSCAASGGIFFIYAMGWYRQAPGKERELVAAISWGGGSTYYADSVKGRFTISRDNAKNTFYLQMNSLKPEDTAVYYCAARLYGRGYYYWGQGTQVTVSS,high polyreactivity
16,QVQLVESGGGLVQAGGSLRLSCAASGRIFWYNAMGWYRQAPGKERELVAVITSGTSTYYADSVKGRFTISRDNAKNTVYLQMNSLKPEDTAVYYCAARYLSRYSERHYYYWGQGTQVTVSS,high polyreactivity
17,QVQLVESGGGLVQAGGSLRLSCAASGSIFLYNAMGWYRQAPGKERELVAAISASGGSTYYADSVKGRFTISRDNAKNTVYLQMNSLKPEDTAVYYCAAQYSDYDGFTWPLPPRYDYWGQGTQVTVSS,high polyreactivity
18,QVQLVESGGGLVQAGGSLRLSCAASGSTFSSYAMGWYRQAPGKERELVAAINWSRTRTYYADSVKGRFTISRDNAKNTVYFQMNSVIPEDTAVYYCAAPGFGETADYDYWGHGTQVTVSS,low polyreactivity
19,QVKLVESGGGLVQAGGSLRLSCAASGRTFPYYAKGWYRQAPGKERELVAAISWSGGSTYYADSVKGRFTISRDNAKNTVYLQMNSLKPEDTAVYYCNTVFSPWPDFRRFGYWGQGTQVTVSS,high polyreactivity
20,QVQLQESGGGLVQAGGSLRLSCAARASIFKVVDMGLYRQAPAKEREFVATIGEGGNTYYADSVKGRFTISRDNAKNTVYLQMNSLKPEDTAVYFYAVVLGTSYRYTYWGQGTQVTVSS,low polyreactivity
21,QVQLVESGGGLVQAGGSLSLSCAASGFIFNHYAMRWYRQAPGTETEFVAAISLSGGSTYYAVSVKGRFTISRDNAKKTVYLQRNSLKPEDTAVYYCAASYNGLWHGDYDYWGHGTQVTVSS,low polyreactivity
22,QVQLVESGGGLVQAGGSLRLSCAASGLIFRIYAMGWYRQAPGKETELVAAISNSGGYTYYADSVKGRFTISRDNAKNTVYLQMNSLKPEDTAVYYCAAELRLWPWRRFDYWGQGTQVTVSS,high polyreactivity

row,Sequence,polyreactivity (PSR sort gate)
1,QVQLVESGGGLVQAGGSLRISCAASGSIFDLNPMGGYRQAPGKERELVAAISSGGGTYYADSVKGRFTISRDNAKNTVYLQMNRLIPEDTAVYYCIRVTRWTSNYWGQCTQVTVSS,high polyreactivity
2,QVQLLETGGGLVQAGGSLRLSCAPSGGIFGFNAMGWYRQAPGKERELVADISDGVRTNYADSVKGLFTISRDNAKTTVYLQMNRLKPEDTAVYYCATDGLFYVDGSWTLGYWGQGTQVTVSS,low polyreactivity
3,QVQLVESGGCLVQAGGSLRLSCAASGSIFSWYGMSWYRQAPGKERELVAAITWGGGSTYYADSVKGRFTISRDNAKNSVYLQMNSLKPEDTAVYYCEVDYWGQCTQVTVSS,low polyreactivity
4,QVQLVESGGGLVQAGGSLRLSCAASGSNFPHNAMGWYRQAPGKERELVAAITSSGGSTYYADSVKGRFTISRDNAKNTVYLQMNSLKPEDTAVYYCNKGKQRRRYNYWGQGTQVTVSS,high polyreactivity
5,QVQLVESGGGLVQAGGSLRLSCAASGRIFFGYAMGWYRQAPGKEREFVAAINWIGGRTYYADSVKGRFTISRDNAKNTVYLQMNSLKPEDTAVYYCAKEVSPYWTFDYWGQGSQVTVSS,low polyreactivity
6,QVQLVESGGALVQAGGSLRLSCAASGRIFRSYVMGWYRQAPGKERELVATITGGGRTNYADSVKGRFTISRDNAKNTVYLQMTSLKPEDTAVYYCAGVYRWWPFHAFDYWGQGTQVTVSS,high polyreactivity
7,QVQHVESGGGLVQAGGSLRLSCAASGSTFPYYAMGWYRQAPGNERELVAAISNGVSTYYADSVKGRFTISRDNAKNTVYFHMNCLKQVDTAVYYCAGDFWITTRDIVKWWLYDYWGQGTQVTVSS,low polyreactivity
8,QVQLVESGGGLVPAGGSLRLSCAASGSTFKIYAMGWYRQAPGKERELVARITSGGSTNYADSVKGRFTISRDNAKNTVYLQMNSLKPDDTAVYYCAARRWSYSTRGQRSTNLDYWGQGTQVTVSS,high polyreactivity
9,QVQLVESGGGLVQAGGSLRLSCAASGSIFDVYGMGWYRQAPGKEREFVADITSRGTRTYYADSVKGRFTISRDNAKNTVYLQMNSLKPEDTAVYYCNADRYTAVRAYDYWGQGTQVTVSS,low polyreactivity
10,QVQLVESGGGLVQAGGILRLSCAASGRTLDCNAMGWYRQAPGKERELDAAITVTGSSTYYADSVKGRFTISRDNAKNTVYLQMNSLKPEDTAVYYCAKASGGDVRYSYSYRMDYWGQGTQVTVSS,low polyreactivity
11,QVQLVESGGGLVEAGGSLRLSCAASGRTFFKYTMGWYRQAPGKERELVSAITGSGASTYYADSVKGRFTISRDNAKNTVYLQMNSLKPEDTAVYYCAAVLTVKKGDKYGYWGQGTQVTVSS,high polyreactivity
12,QVQLVESGGGLVQAGGSLRLSCAASGIISGDYAMGWYRQAPGKERELVARITSGDSTNYADSVKGRFTISRDNAKNTVYLQMNSLKPEDTAVYYCAADRVWAYWTYGYWGQGTQVTVSS,low polyreactivity
13,QVQLVESGGGLVQAGGSLRLSCAASGSTFRYYVMGWYRQAPGKERELVARITSAASTNYADSVKGRFTISRDNAKNTVYLQMNSLKPEDTAVYYCAARKYGSRYRLKYDYWGQGTQVTVSS,high polyreactivity
14,QVQLEESGAGLVQAGGSLRLSCAASGRIFTVYAMGWYRHAPGKEREFVAAIRSSGGRTYYADSVKGRFTISRDNEKNTVYLQMNSLNPEDTAVYYCAASVTGPSGADYYYWGQGTQVTVSS,high polyreactivity
15,QVQLVESGGGLVHGGGSLSLSFDASGSIFRVYPMGWYSPAPGKERELVAAIDSGPSTTYADCVTGRFTISRDNAKNTVYLLMNRLKPVDTEVYCFAADGWLWSFTGDGWWFDYWGQGTQVSVSS,low polyreactivity
16,QVQLVESGGGLVQAGGSLRLSCAASGYNLSVNAMGWYRQAPGKERELVATIDIAGGSTYYADSVNGRFTISRDNAKNTVYLQMNSMKPVDTAVYYCNTEWNSLSKSSLGGRYDHWGQCTQVTVSS,low polyreactivity
17,QVQLAESGGGLVQAGGSLRLSCAASGSTFVSYAMGWYRQAPGKERELVAAIDWSGGNTDYADSVKGRFTISRDNAKNTVYLQMNSLKPEDTAVYYCNADSWPRRGYDYWGQGTQVTVSS,low polyreactivity
18,QDQLVESGRGLVQAGGSLRLSCAASASIFTKYTMVWYRQAPGKERELVAAITLRGTSTYYADSVKGRFTISRDNAKKTVYLQKNSLKPEDTAVYYCNILYSWVVAYDYWGQGTQVTLSS,high polyreactivity
19,QVQLVESGGGLVQAGGSLSLSCAASGRTFYVYAMGWYIQAPGKERELVATISRGGSTTYADSVKGLFTISRDNAKNTVYLQMNSLKPEDTAVYYCATELLGGRRTVAYFWGQGSQVTVSS,low polyreactivity
20,QVQLVESGGGLVQAGGSLRLSCAASGFIFWAYDMGWYRQAPGKERELVAGISKRGGTTYYADSVKGRFTISRDNAKNTVYLQMNSLKPEDTAVYYCAVRLYLEMDYWGQGTQVTVSS,high polyreactivity
21,QDQLVESGGGLVQAGGSLRLSCAASGSNFLKYTMGWYRQAPGKERELVAAITSGGTTNYADSVKGRFTISRDNAKNTVYLQMNSLKPEDTAVYYCARDSYQLGLIRDPLEYDYWGQGTQVTVSS,low polyreactivity
